Data from the nanobody polyreactivity screen of Harvey et al. (2022).

Assay: yeast display, Sf9 membrane polyspecificity reagent, FACS + sequencing; frameworks hold sequencing errors
Summary of the method: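 Nanobodies from a synthetic yeast display library (Saccharomyces cerevisiae BJ5465), induced 36–48 hours with galactose, were stained 1 hour at 4 °C with 10% biotinylated, detergent-solubilized Sf9 membrane reagent, enriched on streptavidin microbeads, then FACS-sorted. Anti-HA (expression) and streptavidin (reagent binding) fluorescence set low and high (top ~1%) gates. Polyreactivity labels come from the gate of origin. Genes were colony-PCR amplified, MiSeq 2 × 250 sequenced and filtered by CDR length.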

Sequence	polyreactivity (PSR sort gate)
QVQLVESGGGLVQAGGSLRLSCAASGRTFKDYAMGWYRQAPGKERELVAAISWSGGDTYYADSVKGRFTISRDNAKNTVYLQMNSLKPEDTAVYYCNADPSGVFFYSLEFDYWGQGTQVTVSS	low polyreactivity
QVQLVESGGGVVQAGGSLRLSCAASGSTIYRYAMGWYRQAPGKEREFVPAITRTTARTYYADSVKGRFTFSRDNAKNTVYLQMNSLKPEDTAVYYCAADLYSWTWSGFRQYDSWGQGTQVTVSS	high polyreactivity
QVQLVESGGGLVQAGGSLRLSCAASGGIFGQYTMGWYRQAPGKERELVAGISKRGTLTRYADSVKGRFTISRDNAKNTVYLQMNSLKPEYSAVYYCNADYVGFFWEYDYWGQGTQVTVSS	high polyreactivity
QVQLGDSGGGLVQAGGSLRISCAASGNTFLYYGMGWYRQAPGKDRDLVAAITQSGGTTYYADSVHGRFTISRDNAKYTVYLQMNSQKPEDTAVYYCGATRYYYYTYVYDDRGDYWGQGTQVTVSS	low polyreactivity
QVQLVESGGGLVQAGGSLRLSCAASGSTFVVNAMGWYRQAPGKERELVAAIRIIGGSTYYADSVKGRFTISRDNAKNTVYLQMKSLKPEDTAVYYCVYSGYFPHQSKMDYWGQGTQVTVSS	low polyreactivity
QVQLVESGGGLVQAGGSLRLSCAASGRTFNVYAMGWYRQAPGKERELVAVITNGGSTNYADSVKGRFTISRDNAKNTVYLQMNSLKPEDTAVYYCAASWGYGALTPDMGYWGQGTQVTVSS	low polyreactivity
QVQLVESGGGLVQAGGSLRLSCASSGLTFHFYTMGWYRQAPGKERELVASITSGGITYYADSVKGRFTISRDNAKNTVYLQMNSLKPEDTAVYYCAATYQFIYTDFDYWGQGTQVTVSS	high polyreactivity
QDQLVESGGGLVQAGGSLRLSCAASGRIFYLNAMGWYRQAPGKERELVAAINTSGDSTYYADSVKGRFTISRDIAKNTVYLQMNSLKQEDTAVYYCAAYVIGPDQFIYDYWGQGTQVTVSS	low polyreactivity
QVQLVESGGGLFQAGGSLRLSCAASGFTVRRYTMGWYRPATGKEREMVATISLSDGNTYYADSVKGRFTISRDNAKNTVYLQMNRLKAEDTAFYDCNAYSQSWNFYGDGDYWGQGTQVTVSS	low polyreactivity
QVHLVESGGGLVQAGGSLRLSFAASGFTFGQNAMGWYRQAPGKEREFVATITASGSTYYADSVKGRFTISRDNAKNTVYLQMYSLKPEDTAVYYCATRYAGEYYWDYDYWGQGTQVTVSS	high polyreactivity
QVQLVESGGGLVQAGGSLRLSCAASGFTFDYYAMGWYRQAPGKERELVASITFIGGNTNYADSVKGRFTISRDNAKNTVYLQMNSLKPEDTAVYYCAADFPWDYRYWFEYWGQGTQVTVSS	low polyreactivity
QDHLVESGRGLVQAGGSLRLSCAASGSIFPSYAMVWNRQAPGKERDLVDSITTSGGSTYYADSVKGRFTISRDNAKNTVYLQMNSLKPEDTAVYYCNARRYYYSWGREGGYWGQGTQVTVSS	low polyreactivity
QVQLVESGGGLVQAGGSLRLSCAATGNTFTYNTMGWYRQAPGKERELVARITFSAGRTYYADSVKGRFTISRDNAKNTVYLQMNSLKPEDTAVYYCAAYSFGLRSYYLYDYWGQGTEVTVSS	high polyreactivity
QVQLVESGGGLVQAGGSLRLSCAASGSTFPLYAMGWYRQAPGKDRELVAAITWSGANTYYADSVKGRFTISRDNAKNTVSLQMNSLKPEDTAVYYCAAGSYAGFAVIGYYYWGQGTQVTVSS	low polyreactivity
QVQLVESGGGLVQAGGSLRLSCAASGYIFRFYTMGWYRQAPGKERELVASITRSGGSTYYADSVKGRFTISRDNAKNTVYLQMNSLKPEDTAVYYCNARKTVGMDYWGQGTQVTVSS	low polyreactivity
QVQLVESGGGLVQAGGSLSLSCAASGIIFGSYAMGWYRQAPGKESELVAAITSRGSSTRYADSVKGRFTISRDNAKNTVYLQMNSLKPEDTAVYYCATKVVVAHLPGYYYWGQGTQVTVSS	high polyreactivity
QVQLVESGGGLVQAGGSLRLSCAASGSTFGPYAMGWYRQAPGKERELVAAIRSDGGTYYADSVTGRFTISRDNAKNTVYLQMNSLKPEDTAVYYCNAVPVGWRYRQYDYWGQGPQVTVSS	high polyreactivity
QVQLVESGGGLVQAGGSLRLSCAASGRIILVYAMGWYRQAPGKERELVAAISSGGSTYYADSVKGRLTISRDNAKNTVYLQMNSLKPEDTAVYYCAARTAVGPIRSYWYDYWGQGTQVTVSS	low polyreactivity
QVQLVESAGGVVQAGGSLRKSCAASLGWYRQAPGKERELVATITSDAGTNYADSVKGRFTISRDNAKNTVYLQMNSLKPEDTAVYYCAATPPYRVYGVNYWGQGTQVTVSS	low polyreactivity
QVQLVESGGGLVQSGGSLRLTWAASGFTFNRYAMGWYRQAPGKEMELVAAITSRSGITYYADSVKGRFTISRDNAKNTVYLQMNSLKPEDTAVYYCAAYVSRSTEFDYGFWGQGTQVTVSS	high polyreactivity
QVQLVESGGGLVQAGGSLRLSCAASGRTFFQYAMGWYRQAPGKERELVAAIRWSDSTYYADSVKGRFTISRDNAKNTVYLQMNSLKPEDTAVYYCAAPRVSQYSTKKYDYWGQGTQVTVSS	low polyreactivity
QVQLVESGGGLVQAGGSLRLSCAASGLTFEKYAMGWYRQAPGKEREMVAAISQDGGSTYYADSVKGRFTISRDNAKNTVYLQMNSLKPEDTAVYYCAAEDPDSWLPWDLFYYWGQGTQVTVSS	low polyreactivity

Sequence	polyreactivity (PSR sort gate)
QVQLVESGGGLVQAGGSLRLTCAASGSIFPKNAIGWYRQAPGKERQLVAGITSRTGRTYYADSVKGRFTISRDNAENTVYLQMNSLKPEDTAVYYCAARNPSGKGRYDYWGQGSQVTVSS	high polyreactivity
QVQLVDSGGGLVQAGGSLRLSCAASGSTFSYYAMGWYRQAPGKERELVAAISYSGDSTYYADTVKGRFTISRDNAKNTVYLQMNSLKPEDSAVYYCNADSPFNGNLDRYFATLDDYWGQGTQVTVSS	low polyreactivity
QVQLVESGGGLFQEGGSLRLICAASGFTFSGYAMGWYRQAPGKERELVDAISSSGGSTYYADSVKGRFTISRDNAKNTVYLQMNSLKPEDTAVYYCYDRSRYYPGYSRFFYWGQGTQVTVSS	high polyreactivity
QVQLVESGRGLVQAGGSLRLSCAASGRTFYLYAMVWNIQAPGKERELVAAITFNGGSTYYADSVKGRFTISRDNAKNTVYLQMNSLKPEDTAVYYCAARLSKRSGYYYWGQVTQVTVSS	high polyreactivity
QVQLVESGGGLVQAGGSLRLRCAASGSTFAWYAMGWYRQAPGKESELVAAITQNGGRTYYADSVKGRFTISRDNAKNTVYLQMNSLKPEDTAVYYCANAFIQPGYKYDSWGQVTQVTVSS	high polyreactivity
QVQLVESGGGLVQAGGSLRLSCAASGIIFWRHVMGWYRQAPGKERELVATISTRGGNTYYADSVKGRFTISRDNAKNTVYLQMNSVKPEDTAVYYCAAGKNGYTYSRSYSYGYWGQGTQVTVSS	high polyreactivity
QVQLVESGGGLVQAGGSLRLSCAASAFIFRFYTMGWYRQATGKETELVAAITSRGDRTYYADSVKRRFTISRENAKNPVYLQMNSLKPEDTAVYYCAKATRGYRSPYGSIGYYYRGQGTQVTVSS	high polyreactivity
QVQLVESGGGLVQAGGSLRISCAASGITLNVYAMGWYRQAPGKERELVAAISYNGGRTYYADSVKGRFTISRDNAKNTVYLQMNSLKPEDTAVYYCAAQWPWGPYDYWGQGTQVTVSS	high polyreactivity
QVQLVESGGGLVQAGGSLRLSCAASGFIFDGNAMGWYRQAPGKERELLAAISWDGGTYYADSVKGRFTISRDNAKNTVYLQMNSLKPEDTAVYYCNKPYGAETAHREFDYWGQGTQVTVSS	low polyreactivity
QVQLVESGGGLVQAGGILRLSCAASGSIFSPYVMGWYRQAPGKERELVAAISTGGSTYYADSVKGRFTISRDNAKNTVYLQMNSLKPEDTAVYYCATDGWKQSAYDYWGQGTQVTVSS	low polyreactivity
QVQLVESGGGLVQAGGSLRLSCAASGSTFSGNAMGWYRQAPGKEWELGATITITGGSTYYADSVKGRFTISRDNAKNTVYLQMNSLKPEDTAVYYCAKDYYAYSDYDYWGQGTQVTVSS	low polyreactivity
QDQLVETLGGLVQAGASLRLSCAASGSIFGNNAMVWYRQEPGKERELVAAISGTGGTTYADSVKGRFTISRDNAKNTVYLQMNSLKPEDTAVYYWALRVWVRDYPFGYARYGYWGQGTQVTVSS	low polyreactivity
QVQLVESGGGLVQAGGSLRLSCAASGFTFYHYAMGWYRQAPGKERELVAAIDNGGSTYADSVKGRFTISRDNAKNTVYLQMNSLKPEDTAVYYCAAVYLRYINGFYYWGQGTQVTVSS	low polyreactivity
QVQLVESGGGLVQAGGSLRLSCAASGSTFTRYAMGWYRQAPGKERELVAGITGRGGSTYYADSVKGRFTISRDNAKNTVYFQMNSLKPEDTAVYYCNKRRRGVTTYDYWGQGTQVTVSS	high polyreactivity
QVQLVESGGGLGQAGGSLRLSCAASGRIFRYNAMGWYRQAPGKDRELVAVITSRGGRTYYADSVKGRFTLSRDNAKNTVYLQMTSLKPEDSAVYYCTATYSGRGSTYWSGYDYWGQGTQVTVSS	high polyreactivity
QIQLVESGGGLVQAGGSLRLSCAASGGIFYINAMGWYRQAPGKERELVAAITESSDITYYADSVKGRFTISRDNAKNSVYLQINSLKPEDTAVYYCAAEFVRSGDDYWGQGTQVTVSS	low polyreactivity
QVQLVESGGGLVQAGGSLRLSCAASGFIFQDYAMGWYRQAPGKERELVAAITQSSGSTYYADSVKGRFTISRDNAKNTVYLQMNSLKPEDTAVYYCNTAYDFSRQASYDYWGQVTQVTVSS	low polyreactivity
QVQLVESGAGLVQAGGSLRLSCAASGNTFGTYAMGGSRQAPGKERELVASISKRAGSTYYADSVKGRFTISRDNAKNTVYLQMNSLKPEDTAVYYCAASSWDTFDYWGQGTQVTVSS	high polyreactivity
QVQLVESGGGLVQAGGSLRLSCAASGSTFSAYDMGWYRQAPGKERELVAAIDTGGTTYYADSVKGRFTISRDTAKNTVYVQMNSLKPEDTAVYYCIATIWYRDYGYWGQGTQVTVSS	low polyreactivity
QVQLVESGGGLVQAGGSLRLSCAASGSTFGYYTMGWYRQAPGKERELVAAITWSGGSTYYADSVKGRFTISRDNAKNTVFLQMNSLKPEDTAVYYCAAEDYWTPFGYWGQGTQVTVSS	low polyreactivity
QVQLVESGGGLVHAGGSLRLSCAASGFTFFKYAKGWYRQAPGKERELVATISIDGITNYADSVKGRFTISRHNAKNTVYLQMNSLKPEDTAVYYCHARSLYQQLGYWGQGTQVTVSS	low polyreactivity
